Data taken from the supplement of paper PMC9170038.

Tested on: MS2 coat protein
Test: apparent KD of MS2 coat protein; designed switch direction (-1 OFF switch, 1 ON switch): 1; higher = weaker reporter binding
How it was run: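 Transcription of designed RNA switches on Illumina chips was done by stalled E. coli RNA polymerase. SNAP-549-labelled MS2 coat protein was then titrated in doubling steps from 0.7 or 1.5 nM to 3 µM, with steps of 0.8–1.5 h at the lowest and 10–20 min at the highest concentration. The per-design median over clusters of curve-fitted normalised fluorescence is reported as apparent KD.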

[1] = Eterna round: R95, input ligand: FMN 200 uM
[2] = Eterna round: R95, input ligand: microRNA oligo, concentration not stated
[3] = Eterna round: R95, input ligand: none
[4] = input ligand: microRNA oligo, concentration not stated

Sequence	apparent KD of MS2 coat protein [1]	apparent KD of MS2 coat protein [2]	apparent KD of MS2 coat protein [3]	apparent KD of MS2 coat protein (input ligand: FMN 200 uM)	apparent KD of MS2 coat protein [4]	apparent KD of MS2 coat protein (input ligand: none)
AUAAGUUCGAUGCUCGUCUCUCCGUACAAACAUGAGGAUCACCCAUGUGAUCGGGCAGUAGCCCGAUCAGUAUGGCC [Soriin] (puzzle: Sensor for hsa-mir-208a)	0.0393 µM	0.0205 µM	0.0478 µM	–	–	–
AGCCGAGACUGAGGAUAUAGAUAUCUACAUGAGGAUCACCCAUGUAGCAACACGUGGUAGUGAUUCUAGAAGGCGGCUCGGCGC [Omei SS(NG)2 Cv6] (Eterna round: R96, puzzle: Same State NG 2)	–	–	–	0.0192 µM	0.0662 µM	0.0837 µM
GGAUGAUUAAUAGGAUAUUAUUUGUAAAUUGGUUAAGAAGGAUUAAUGAUUUAAACGACCUGUUACAUGAGGAUCACCCAUGUU [JR_SSNG1_Sub090] (Eterna round: R96, puzzle: Same State NG 1)	–	–	–	–	0.0332 µM	–
AACCUACAUGAGGAUCACCCAUGUGUCUAAGGCACAGGAUAUCGACAGGCAAGACACCUGCGAGAAGGGUGACCUA [Diatater] (puzzle: Same State 1)	0.0562 µM	0.024 µM	0.0487 µM	–	–	–
AUAAAACAUGAGGAUCACCCAUGUCAUCAAAGUCGAGGAUAUGGGCAAAUAAAAUAAGAACCAGAAGGCGAAUAAU [salish99_ss1_r3_043] (puzzle: Same State 1)	0.106 µM	0.298 µM	0.501 µM	–	–	–
GUUAGGAAUCUAGCAAACAUGAGGAUCACCCAUGUAAGUGGGAAGGAUAUGGUACAGAAACUGUACCAGAAGGUCUUAUUGAUU [Omei SS(NG) 3 AV5] (Eterna round: R96, puzzle: Same State NG 3)	–	–	–	0.0817 µM	0.247 µM	0.371 µM
GGGCUCUACGGAGGAUAUUCAACACAUGAGGAUCACCCAUGUCAGCCUCCCUGAUCCAGGGAAGCGAAGAAGGCUGCGAGGACG [Eternabot solution 35] (Eterna round: R96, puzzle: Same State NG 2)	–	–	–	0.0291 µM	0.0218 µM	0.0345 µM
AAUCGUUUGAUAGGAUAUCGCUAUACAUGAGGAUCACCCAUGUUUACCACGCUGGUUUUUCAUACCGAGAAGGAUUCUGAUGAA [salish99_SSNG02_r04_003] (Eterna round: R96, puzzle: Same State NG 2)	–	–	–	0.0315 µM	0.0271 µM	0.0334 µM
AGCUAUUACGAAGGAUAUUGUGACAUGAGGAUCACCCAUGUUUUCAUGAUUAAUUGUGAUCACGUCGAGAAGGUUGUACUAACA [SameState NG2 #30] (Eterna round: R96, puzzle: Same State NG 2)	–	–	–	–	0.043 µM	–
CGCUGUCACGCAGGAUAUGCAUUGGAUUACAAUGCAGAAGGGCGAUUACAUGAGGAUCACCCAUGUGUAGACAGUGAAGAAGAG [MOD JMF Solution 3] (Eterna round: R96, puzzle: Same State NG 1)	–	–	–	0.0324 µM	0.271 µM	0.386 µM
GCUCGUGGUAUUGUCUACAUGAGGAUCACCCAUGUAGGUGCGGAGGAUAUCUACGUGUCUCAUGUAGAGAAGGCCGUCACGAGC [SameState NG3 #98] (Eterna round: R96, puzzle: Same State NG 3)	–	–	–	0.0203 µM	0.0362 µM	0.0894 µM
CGGGUACAUGAGGAUCACCCAUGUUGGAGUAAUGCAGGAUAUGUGGGACGAGGUUAUAAAACAGAAGGGCAAGGAG [JR_SS!_Sub011] (puzzle: Same State 1)	0.0535 µM	0.0629 µM	0.0672 µM	–	–	–
UUCCCAUCGGGAGGAUAUGGUACCUUAUUGGUUCUAGAAGGUCCAACAUGAGGAUCACCCAUGUGGGAGUGGUCUAAUGACCUC [SS NG10LRO04] (Eterna round: R96, puzzle: Same State NG 1)	–	–	–	0.247 µM	0.326 µM	0.311 µM
AACAUUCUAUCUCAGGAUAUCAUGUCAAAGACAUGAGGAUCACCCAUGUACCAGGAAACUGGUUAUGAGAAGGGAGAUAGAAUGA [Mat - Same State 2 - Mod - D45] (puzzle: Same State 2)	0.114 µM	0.0894 µM	0.162 µM	–	–	–
UCUUGGUUUUUGCUCGUUUUUUGUGUUGAACAUGAGGAUCACCCAUGUAUUGUACGGUCCGAUUUGAUAAUGGUCCG [JMF 21] (puzzle: Sensor for hsa-mir-208a)	0.0258 µM	0.0148 µM	0.027 µM	–	–	–
UGACACACGGCAGGAUAUGCUUAGCAAAGCUAAGCAGAAGGGCCUCAUGUCGUGGAAAUGUGACAUGAGGAUCACCCAUGUUGC [Omei SS(NG)1 Cv6] (Eterna round: R96, puzzle: Same State NG 1)	–	–	–	0.0393 µM	0.0207 µM	0.0922 µM

Sequence	apparent KD of MS2 coat protein [1]	apparent KD of MS2 coat protein [2]	apparent KD of MS2 coat protein [3]	apparent KD of MS2 coat protein (input ligand: FMN 200 uM)	apparent KD of MS2 coat protein [4]	apparent KD of MS2 coat protein (input ligand: none)
AACAUGUGGUGUCACAUGAGGAUCACCCAUGUGGUAAAACCUGAGGAUAUAAAGAAAAAAAUCAAUUAGAAGGUAGGAUCACAA [AK SSNG3-V2-18.1] (Eterna round: R96, puzzle: Same State NG 3)	–	–	–	0.0164 µM	0.0262 µM	0.0325 µM
AUACCAUCGGGAGGAUAUGGCACCUUAUUGGUGCCAGAAGGUCCAACAUGAGGAUCACCCAUGUGGGAGUGGUCUAAUGACCAC [Fiskers NG1ss - 28] (Eterna round: R96, puzzle: Same State NG 1)	–	–	–	0.121 µM	0.12 µM	0.171 µM
AGCUUUUAAUUAGGAUAUGGUCACAUGAGGAUCACCCAUGUAACGAUGAUACGAUGUGGUCAAGACUAGAAGGGAUCGCUAACA [SameState NG2 #70] (Eterna round: R96, puzzle: Same State NG 2)	–	–	–	0.15 µM	0.0829 µM	0.113 µM
UAUGAACAUGAGGAUCACCCAUGUGGAAAGGACACAGGAUAUCACCUCGGACGUGCGAUGUGAGAAGGGUGAUGGU [Anrelari] (puzzle: Same State 1)	0.26 µM	0.103 µM	0.125 µM	–	–	–
UGGUACAUGGGAGGAUAUCAUGUAGAAACAUGAGGAUCACCCAUGUAGGUGGCACGAUUCGUGAAUGAGAAGGCCCAUGUACCU [JL SSNG1 3.61] (Eterna round: R96, puzzle: Same State NG 2)	–	–	–	0.312 µM	0.225 µM	0.376 µM
GUACAGAUUAUAGGAUAUCACGUCGUUUAGACGUGAGAAGGAUAAUCCCACAUGAAUAUUAAUACAUGAGGAUCACCCAUGUAC [SSNG1/18-B3] (Eterna round: R96, puzzle: Same State NG 1)	–	–	–	0.0218 µM	0.0277 µM	0.0307 µM
CUGAGCGAUCAAGGAUAUCACGUCGAAUAGACGUGAGAAGGUGAUAAUUACAUGAGGAUCACCCAUGUAUAACAUGAAGCUCAG [SSNG1/9-A1] (Eterna round: R96, puzzle: Same State NG 1)	–	–	–	0.0166 µM	0.0156 µM	0.0224 µM
GAGUAUGAACUACAGGAUAUAUAGCAGAUGACAUGAGGAUCACCCAUGUAAGAGAAAGGAGGGAAAUAGAAGGGUAUGGGAGGUG [JR_SS2_Sub036] (puzzle: Same State 2)	0.0376 µM	0.0339 µM	0.0314 µM	–	–	–
GUGGUCAGACAUGAGGAUCACCCAUGUGGAAUAAAUAAGGGUUAGGAUAUCUAAUAUAGGAUAUAAGAGAAGGGAUGGUUGGUG (Eterna round: R96, puzzle: Same State NG 3)	–	–	–	0.118 µM	0.0648 µM	0.0962 µM
UUAAUGAUGAAAGGAUAUACAUGAGGAAUUCUCGUAGAAGGUUCAUGACAUGAGGAUCACCCAUGUAUCGCUCAGAAGAGCGUA [Mat - Same State NG 1 - JL mod - D29] (Eterna round: R96, puzzle: Same State NG 1)	–	–	–	0.0474 µM	0.036 µM	0.0854 µM
AGGCCACCGGGAGGAUAUGGCACCUAUAUGGUGCCAGAAGGCUCAACAUGAGGAUCACCCAUGUGGGUGGGUUCUAAUGAACAA [Fiskers NG1 - 1] (Eterna round: R96, puzzle: Same State NG 1)	–	–	–	0.0691 µM	0.0417 µM	0.0467 µM
ACAUGAGAGAAAGGAUAUGGUGUACCUACAUGUGACAUGAGGAUCACCCAUGUGGUAAGUAUGACUCAGAAGGUUCAGAUAUGU [Equivalance 73 - Jieux - Same State NG 2] (Eterna round: R96, puzzle: Same State NG 2)	–	–	–	0.0169 µM	0.0656 µM	0.126 µM
GGAGCCGGCCUAGGAUAUUUCAUAAAAGAACAUGAGGAUCACCCAUGUAGGCCAGAAGGCCUUGGGAAGAAGGAGGUCGGCUCC [Loop Effect - G28] (Eterna round: R96, puzzle: Same State NG 2)	–	–	–	0.0144 µM	0.0224 µM	0.0318 µM
AAACAUGAGCGAGGAUAUGCGGACGAUUACGCUGUAGAAGGCGCAUGUAAAACAACAUGAGGAUCACCCAUGUCAUGUACAUGU (Eterna round: R96, puzzle: Same State NG 1)	–	–	–	0.308 µM	0.146 µM	0.265 µM
AGCCGAGACUGAGGAUAUAGAAAUCUACAUGAGGAUCACCCAUGUAGCAACACGUGGUAGUGAUUCUAGAAGGCGGCUCGGCGC [Omei SS(NG)2 Cv5] (Eterna round: R96, puzzle: Same State NG 2)	–	–	–	0.0134 µM	0.0411 µM	0.0406 µM
